In article PMC4872748, “NG2 proteoglycan as a pericyte target for anticancer therapy by tumor vessel infarction with retargeted tissue factor” (Oncotarget, 2016):

Molecular target: T1, NG2 (nerve/glial antigen 2) proteoglycan (human (endogenous in HuAoSMC and G361), UniProt Q6UVK1 30-2322)
T1 construct: NG2 proteoglycan (CSPG4), transmembrane surface proteoglycan, endogenous on human cells; also called high-molecular melanoma associated antigen; CSPG4; source: endogenous, on human aortic smooth muscle cells (HuAoSMC) and G361-melanoma cells
Assay: radioligand binding; increasing concentrations of 123I-tTF-TAA on cultivated HuAoSMC, gamma counter; nonlinear fit of total binding (GraphPad Prism 6: one site - total binding), an approximation
Conditions: one partner purified

T1 sequence (Q6UVK1 30-2322): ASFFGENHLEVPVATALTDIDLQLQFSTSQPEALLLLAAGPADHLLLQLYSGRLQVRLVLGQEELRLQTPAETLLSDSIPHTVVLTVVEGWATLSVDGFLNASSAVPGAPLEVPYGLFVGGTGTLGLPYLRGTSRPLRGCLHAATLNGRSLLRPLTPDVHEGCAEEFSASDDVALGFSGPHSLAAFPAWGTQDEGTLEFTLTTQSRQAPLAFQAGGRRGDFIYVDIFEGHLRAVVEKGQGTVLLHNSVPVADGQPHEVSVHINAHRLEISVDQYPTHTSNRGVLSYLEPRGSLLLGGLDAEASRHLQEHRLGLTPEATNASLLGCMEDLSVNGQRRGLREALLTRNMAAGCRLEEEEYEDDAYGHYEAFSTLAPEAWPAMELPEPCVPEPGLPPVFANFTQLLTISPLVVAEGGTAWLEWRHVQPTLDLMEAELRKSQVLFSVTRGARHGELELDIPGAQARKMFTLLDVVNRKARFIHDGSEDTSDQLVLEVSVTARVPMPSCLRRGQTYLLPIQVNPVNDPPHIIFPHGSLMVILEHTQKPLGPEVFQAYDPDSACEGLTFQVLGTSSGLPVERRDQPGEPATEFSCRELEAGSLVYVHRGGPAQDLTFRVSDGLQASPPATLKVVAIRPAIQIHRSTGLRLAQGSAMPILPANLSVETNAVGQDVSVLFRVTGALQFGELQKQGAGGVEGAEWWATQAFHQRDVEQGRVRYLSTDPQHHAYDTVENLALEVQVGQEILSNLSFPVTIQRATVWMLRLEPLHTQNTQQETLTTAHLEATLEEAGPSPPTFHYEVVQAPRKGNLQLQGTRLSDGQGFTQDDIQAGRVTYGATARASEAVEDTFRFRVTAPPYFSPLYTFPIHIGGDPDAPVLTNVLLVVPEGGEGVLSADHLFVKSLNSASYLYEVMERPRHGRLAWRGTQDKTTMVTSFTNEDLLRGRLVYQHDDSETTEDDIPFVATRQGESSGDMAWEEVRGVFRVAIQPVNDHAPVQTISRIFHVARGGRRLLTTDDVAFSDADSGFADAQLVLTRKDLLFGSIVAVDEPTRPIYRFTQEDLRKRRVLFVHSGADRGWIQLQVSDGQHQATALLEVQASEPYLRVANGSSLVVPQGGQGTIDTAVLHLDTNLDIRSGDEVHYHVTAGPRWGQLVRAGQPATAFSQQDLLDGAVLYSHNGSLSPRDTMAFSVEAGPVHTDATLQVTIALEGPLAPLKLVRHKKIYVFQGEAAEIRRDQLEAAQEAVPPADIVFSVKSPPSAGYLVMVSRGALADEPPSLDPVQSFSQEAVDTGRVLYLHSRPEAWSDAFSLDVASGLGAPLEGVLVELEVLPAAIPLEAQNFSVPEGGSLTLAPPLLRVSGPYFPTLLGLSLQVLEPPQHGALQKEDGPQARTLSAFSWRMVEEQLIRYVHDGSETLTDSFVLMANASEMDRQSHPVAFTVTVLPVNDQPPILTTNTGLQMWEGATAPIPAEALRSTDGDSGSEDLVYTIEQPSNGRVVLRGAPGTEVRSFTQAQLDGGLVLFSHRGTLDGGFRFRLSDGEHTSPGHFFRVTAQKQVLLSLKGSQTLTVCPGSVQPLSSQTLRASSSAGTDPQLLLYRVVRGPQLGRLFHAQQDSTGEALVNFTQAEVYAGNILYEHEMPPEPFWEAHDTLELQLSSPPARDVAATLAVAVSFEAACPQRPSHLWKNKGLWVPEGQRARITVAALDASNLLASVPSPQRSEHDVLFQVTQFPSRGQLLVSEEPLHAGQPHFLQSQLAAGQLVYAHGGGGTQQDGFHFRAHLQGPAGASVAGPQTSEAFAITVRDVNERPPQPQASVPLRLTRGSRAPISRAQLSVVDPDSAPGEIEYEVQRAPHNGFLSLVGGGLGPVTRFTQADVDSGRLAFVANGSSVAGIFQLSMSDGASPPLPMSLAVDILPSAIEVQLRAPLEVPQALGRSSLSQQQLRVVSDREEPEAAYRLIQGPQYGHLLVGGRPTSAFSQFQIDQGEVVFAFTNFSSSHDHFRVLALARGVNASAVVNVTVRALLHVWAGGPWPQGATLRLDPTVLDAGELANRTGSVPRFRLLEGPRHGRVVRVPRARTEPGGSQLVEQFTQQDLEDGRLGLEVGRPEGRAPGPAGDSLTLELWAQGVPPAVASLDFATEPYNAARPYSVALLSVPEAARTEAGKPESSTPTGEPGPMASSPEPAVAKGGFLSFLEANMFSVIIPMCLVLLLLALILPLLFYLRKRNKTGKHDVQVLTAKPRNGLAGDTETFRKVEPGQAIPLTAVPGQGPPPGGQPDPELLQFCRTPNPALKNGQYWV

Kd: ~785 nM
B1: 123I-tTF218-TAA (other)
chain: SGTTNTVAAYNLTWKSTNFKTILEWEPKPVNQVYTVQISTKSGDWKSKCFYTTDTECDLTDEIVKDVKQTYLARVFSYPAGNVESTGSAGEPLYENSPEFTPYLETNLGQPTIQSFEQVGTKVNVTVEDERTLVRRNNTFLSLRDVFGKDLIYTLYYWKSSSSGKKTAKTNTNEFLIDVDKGENYCFSVQAVIPSRTVNRKSTDSPVECMGQEKGEFRTAASGVRSMH
modifications: 123I (iodinated; residues not stated)
